Data from patent US20100092974A1, “METHODS FOR SCREENING FOR MODULATORS OF CCRL2” (The Board of Trustees of the Leland Stanford Junior …, priority 2008, published 2010).

Legend:
mCMKLR1 = biological target: T1, mCMKLR1 (Mus musculus, UniProt P97468); test: intracellular calcium mobilization, mCMKLR1 L1.2 transfectants; type: cell-based; details: Fluo-4
T1 construct: expressed in transfected cells; host or cells: L1.2 mouse pre-B lymphoma cells
T1 sequence (P97468 1-371): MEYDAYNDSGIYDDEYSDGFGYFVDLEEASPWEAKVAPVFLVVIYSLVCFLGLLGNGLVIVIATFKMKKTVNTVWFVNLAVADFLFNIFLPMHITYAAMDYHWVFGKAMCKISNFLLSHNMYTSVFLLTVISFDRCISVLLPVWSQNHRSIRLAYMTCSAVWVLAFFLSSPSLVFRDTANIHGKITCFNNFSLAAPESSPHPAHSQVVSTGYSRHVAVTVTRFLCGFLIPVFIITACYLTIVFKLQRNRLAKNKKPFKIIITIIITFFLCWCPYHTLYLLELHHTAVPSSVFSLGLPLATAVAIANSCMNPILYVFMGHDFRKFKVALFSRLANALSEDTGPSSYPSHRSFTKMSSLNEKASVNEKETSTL
Protocol: Chemoattractant-stimulated Ca^2+-mobilization was performed following Alliance for Cell Signaling protocol ID PP00000210. Cells (3×10^6/mL) were loaded with 4 μM Fluo4-AM and 0.16% Pluronic acid F-127 (Molecular Probes) in modified Iscove's medium (Iscove's medium with 1% heat inactivated bovine calf serum and 2 mM L-glutamine, Invitrogen) for 30 minutes at 37° C. The samples were mixed every 10 minutes during loading, washed once, resuspended at up to 2×10^6/mL in the same buffer, and allowed to rest in the dark for 30 minutes at room temperature. Chemoattractant-stimulated change in Ca^2+-sensitive fluorescence of Fluo-4 was measured over real-time with a FACsScan flow cytometer and CellQuest software (BD Biosciences) at room temperature under constant stirring (500 rpm). Fluorescent data were acquired continuously up to 1024 seconds at 1-second intervals. The samples were analyzed for 45 seconds to establish basal state, removed from the nozzle to add the stimuli, and then returned to the nozzle. Mean channel fluorescence over time was analyzed with FlowJo (TreeStar, Ashland, Oreg., USA) software. […] 500 μl of these chemerin-loaded cells were added to mCMKLR1/L1.2 cells loaded with Fluo4-AM, and calcium mobilization was evaluated.

FcRεI = biological target: T2, FcRεI (Mus musculus, UniProt P20489); test: IgE binding to FcRεI on peritoneal mast cells (specificity control); details: 1000 nM chemerin
T2 construct: endogenous in cells; host or cells: mouse peritoneal mast cells
T2 sequence (P20489 24-250): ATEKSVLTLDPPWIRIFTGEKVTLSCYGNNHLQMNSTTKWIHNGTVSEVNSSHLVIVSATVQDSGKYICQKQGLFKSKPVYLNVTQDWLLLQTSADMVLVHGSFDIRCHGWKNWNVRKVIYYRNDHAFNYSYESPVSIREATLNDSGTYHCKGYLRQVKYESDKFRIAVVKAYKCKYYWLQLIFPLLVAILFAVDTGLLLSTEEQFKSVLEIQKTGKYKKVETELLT
T2 sequence (P20490 1-235 partner): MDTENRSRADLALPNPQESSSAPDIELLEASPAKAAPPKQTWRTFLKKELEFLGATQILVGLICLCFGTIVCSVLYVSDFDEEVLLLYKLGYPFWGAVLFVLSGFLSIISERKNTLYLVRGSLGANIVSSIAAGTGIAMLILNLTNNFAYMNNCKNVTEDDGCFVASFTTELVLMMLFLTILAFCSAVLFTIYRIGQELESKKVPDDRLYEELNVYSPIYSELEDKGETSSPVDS
T2 sequence (P20491 19-86 partner): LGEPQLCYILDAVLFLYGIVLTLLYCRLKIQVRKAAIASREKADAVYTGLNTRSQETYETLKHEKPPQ

mCCRL2 = biological target: T3, mCCRL2 (Mus musculus, UniProt O35457); test: immunofluorescence-based chemerin-binding assay, mCCRL2-HA L1.2; details: read-out: EC50, untagged chemerin vs His8-tagged chemerin binding; 10 nM His8-tagged serum form chemerin, 30 min on ice, anti-His6 PE
T3 construct: The coding regions of mCCRL2, huCCRL2, mCRTH2, and huCCR10 were amplified from genomic DNA; expressed in transfected cells
T3 sequence (O35457 1-360): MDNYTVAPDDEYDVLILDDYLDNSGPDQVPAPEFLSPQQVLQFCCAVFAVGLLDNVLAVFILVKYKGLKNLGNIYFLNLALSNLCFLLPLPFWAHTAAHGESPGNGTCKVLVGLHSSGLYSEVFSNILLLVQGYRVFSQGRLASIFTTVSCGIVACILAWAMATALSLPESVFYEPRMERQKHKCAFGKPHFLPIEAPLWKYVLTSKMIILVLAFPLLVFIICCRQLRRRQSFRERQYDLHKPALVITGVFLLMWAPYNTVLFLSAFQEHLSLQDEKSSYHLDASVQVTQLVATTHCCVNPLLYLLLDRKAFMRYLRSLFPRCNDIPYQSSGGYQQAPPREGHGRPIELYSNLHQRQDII

[1] = test system: mouse peritoneal mast cells; test: in vitro transwell chemotaxis, peritoneal mast cells; type: cell-based; details: SSChigh CD11b- c-kit+ cells
Protocol: For migration experiments using cell lines, 2.5×10^5 cells/100 μl chemotaxis media (RPMI+10% fetal calf serum) were added to the top wells of 5-um pore transwell inserts (Costar, Corning, N.Y., USA), and test samples in 600 μl media were added to the bottom wells. After incubating the transwell plates for 1.5 hours at 37° C., the bottom wells were harvested and flow cytometry was used to assess migration. For primary cell chemotaxis, 1×10^6 cells/100 μl were added to the top well, and, following a 2 hour incubation at 37° C., polystyrene beads (15.0 μm diameter, Polysciences, Warrington, Pa., USA) were added to each well to facilitate normalization of the cell count. The cells were then stained for c-kit, F4/80, and/or CD11b expression and analyzed by flow cytometry. A ratio was generated and percent input migration was calculated.

[2] = test system: mouse peritoneal mast cells; test: immunofluorescence chemerin binding to peritoneal mast cells (WT or CCRL2 KO)
huCCRL2 = biological target: T4, huCCRL2 (Homo sapiens, UniProt O00421); test: receptor internalization assay, huCCRL2-HA L1.2; type: cell-based; details: 100 nM chemerin, 15 min
T4 construct: The coding regions of mCCRL2, huCCRL2, mCRTH2, and huCCR10 were amplified from genomic DNA; expressed in transfected cells
T4 sequence (O00421 1-344): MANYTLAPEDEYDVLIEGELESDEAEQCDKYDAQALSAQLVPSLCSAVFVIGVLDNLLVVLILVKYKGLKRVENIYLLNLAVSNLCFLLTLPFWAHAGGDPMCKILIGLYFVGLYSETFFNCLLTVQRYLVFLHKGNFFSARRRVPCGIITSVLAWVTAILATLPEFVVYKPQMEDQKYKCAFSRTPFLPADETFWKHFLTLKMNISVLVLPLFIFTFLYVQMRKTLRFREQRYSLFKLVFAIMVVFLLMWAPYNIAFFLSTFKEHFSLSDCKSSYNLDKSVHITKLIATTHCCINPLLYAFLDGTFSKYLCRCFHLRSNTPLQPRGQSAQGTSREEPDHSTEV
Protocol: The cells were then washed with 200 μl PBS and stained with mouse anti-HA (Covance, Inc) or mIgG1 isotype control, followed by staining with secondary anti-mouse IgG1 PE, fixed, and analyzed by flow cytometry.

## chemerin: protein ligand for signaling receptor CMKLR1; serum form human chemerin expressed in baculovirus-infected insect cells, His8-tag removed
mCMKLR1
  intracellular calcium mobilization: robust calcium flux
FcRεI
  binding of IgE to FcRεI: unaffected
mCCRL2
  EC50: 45 nM
[1]
  transwell migration: failed to migrate
[2]; WT mice
  binding to freshly isolated peritoneal mast cells: bound
[2]; WT peritoneal mast cells
  preference for binding of the pro-form vs. the active serum form: no obvious preference
[2]; mCCRL2 KO mice
  binding to peritoneal mast cells: did not bind
huCCRL2
  ligand-induced receptor internalization: failed to internalize
